This passage reports fold difference in EC50 against parental 44H10 results from paper PMC11270187.

The target in the assay is HLA-DR on BJAB cells (human (endogenous in BJAB)). In words: flow cytometry on cells; full antibody titration of purified IgGs on HLA-DR-expressing BJAB cells, Fc Block, 1 h at 4 °C, detected with AF488 goat anti-human IgG Fcγ; also after storage of the IgGs at -20, 4 or 40 °C for up to 4 weeks. Background: Flow cytometry measures light scatter and fluorescence of single cells or particles in a stream.

Where only a bound is given, the exact number is not on record here.

B1: humanized 44H10 version 17 IgG (antibody, V domains shown)
VH: QVTLKESGPVLVKPTETLTLTCTVSGFSLTSYGVHWIRQPPGKALEWLAVIWAGGSISYSTSLMSRLTISKDTSKSQVVLTMTNMDPVDTATYYCARAYGDYVHYAMDYWGQGTLVTVSS
VL: DIQMTQSPSSLSASVGDRVTITCRASQEISGYLTWLQQKPGKAPKLLIYAASTLDSGVPSRFSGSGSGTDFTLTISSLQPEDFATYYCLQYTNYPLTFGQGTKLEIK
Regarding B1, the fold difference in EC50 against parental 44H10 is more than 50 fold.
